Patent publication US20230406950A1 (LYVGEN BIOPHARMA, published 2023)
Where two headings read alike, the source gives them in different places.

Columns and labels:
[1] = target: T1, human CD137 expressed on cells (human, UniProt Q07011 24-255); assay: FACS on CHO cells expressing human CD137 (MFI)
T1 construct: whole, on cells; also called 4-1BB; TNFRSF9
Protocol: (§1) Anti-GITR/CD137 bi-specific antibodies were analyzed by FACS for their binding properties to human GITR and/or human CD137 expressed on CHO cells. Briefly, cultured cells were harvested, counted and cell viability was evaluated using the Trypan Blue exclusion method. Viable cells were then adjusted to 2×10⁶ cells per mL in PBS containing 2% BSA. 100 μL of this cell suspension were further aliquoted per well into a V-bottom 96-well plate. […] After incubation for 2 hours at 4° C., cells were centrifuged (3 min, 1000× g), washed with 250 μL/well BSA-containing FACS Stain Buffer, resuspended and incubated for an additional 1 hour at 4° C. with 100 μL/well fluorochrome-conjugated anti-IgG antibody for detection of the bisepecific antibody. Cells were then washed with 250 μL/well BSA-containing FACS Stain Buffer, resuspended in 100 μL/well FACS Stain Buffer, acquired and analyzed using a FACS machine. Binding of the bispecific antibodies to human GITR or human CD137 expressing CHO cells were evaluated and the mean fluorescence intensity is plotted in histograms or dot plots.

[2] = target: T2, human GITR expressed on cells (human, UniProt Q9Y5U5 26-241); assay: flow cytometry (FACS), MFI, CHO cells expressing human GITR
T2 construct: whole, on cells; also called TNFRSF18; CD357
T2 sequence (looked up): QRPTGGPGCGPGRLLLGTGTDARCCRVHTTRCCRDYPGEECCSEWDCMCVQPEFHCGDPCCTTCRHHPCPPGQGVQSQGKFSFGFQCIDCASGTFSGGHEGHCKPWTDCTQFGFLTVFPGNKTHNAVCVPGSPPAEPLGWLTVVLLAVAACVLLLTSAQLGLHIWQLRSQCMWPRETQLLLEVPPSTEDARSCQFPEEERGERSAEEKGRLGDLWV
Protocol: as §1

[3] = target: T3, human CD40 expressed on CHO cells (human, UniProt P25942 21-277); assay: FACS on CHO cells expressing human CD40 (MFI)
T3 construct: whole, on cells
Protocol: as §1, with “Anti-CD40/CD137” for “Anti-GITR/CD137”, “CD40” for “GITR”, “1000×g),” for “1000× g),”

[4] = target: T1, human CD137 expressed on cells; assay: FACS on CHO cells expressing human CD137 (MFI); remark: listed apart in the source
Protocol: as §1, with “Anti-CD40/CD137” for “Anti-GITR/CD137”, “CD40” for “GITR”, “1000×g),” for “1000× g),”

T1 sequence (Q07011 24-255): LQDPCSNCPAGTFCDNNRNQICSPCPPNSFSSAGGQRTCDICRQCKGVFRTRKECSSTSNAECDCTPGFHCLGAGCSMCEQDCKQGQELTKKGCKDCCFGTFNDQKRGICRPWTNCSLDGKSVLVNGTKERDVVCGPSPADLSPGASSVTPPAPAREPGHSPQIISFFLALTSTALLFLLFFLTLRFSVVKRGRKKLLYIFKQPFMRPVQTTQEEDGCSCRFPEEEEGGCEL
T3 sequence (P25942 21-277): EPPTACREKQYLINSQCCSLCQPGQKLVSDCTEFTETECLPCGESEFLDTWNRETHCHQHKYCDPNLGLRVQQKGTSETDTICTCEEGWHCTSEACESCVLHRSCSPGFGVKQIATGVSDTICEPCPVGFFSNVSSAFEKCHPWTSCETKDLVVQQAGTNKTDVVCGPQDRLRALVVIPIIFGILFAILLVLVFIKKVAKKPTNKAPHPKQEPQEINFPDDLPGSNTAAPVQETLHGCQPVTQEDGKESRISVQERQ

B1: Ly754 (bispecific antibody, human IgG1, kappa)
heavy: QVQLVQSGAEVKKPGASVKVSCKASGYTFAGFEMHWVRQAPGQGLEWMGAIDPKTGGTDYNQKFKDRVTMTRDTSISTAYMELSRLRSDDTAVYYCARDLGYFDVWGQGTLVTVSSASTKGPSVFPLAPSSKSTSGGTAALGCLVKDYFPEPVTVSWNSGALTSGVHTFPAVLQSSGLYSLSSVVTVPSSSLGTQTYICNVNHKPSNTKVDKKVEPKSCDKTHTCPPCPAPELLGPSVFLFPPKPKDTLMISRTPEVTCVVVDVSHEDPEVKFNWYVDGVEVHNAKTKPREEQYNSTYRVVSVLTVLHQDWLNGKEYKCKVSNKALPAPIEKTISKAKGQPREPQVYTLPPSREEMTKNQVSLTCLVKGFYPSDIAVEWESNGQPENNYKTTPPVLDSDGSFFLYSKLTVDKSRWQQGNVFSCSVMHEALHNHYTQKSLSLSPGGGGGSGGGGSGGGGSGGGGSEIVLTQSPATLSLSPGERATLSCRASKSVRTGMHWYQQKPGQAPRLLIYGASNLESGIPARFSGSGSGTDFTLTISSLEPEDFAVYYCQQSWNHFTFGQGTKLEIKGGGGSGGGGSGGGGSGGGGSQVQLQESGPGLVKPSETLSLTCTVSGFSLTSYNVHWIRQPPGKGLEWIGVIWSGVRTDYNSVLKPRVTISVDTSKNQFSLKLSSVTAADTAVYYCARGTYDDNYHDVMDAWGQGTLVTVSS
light: DIQMTQSPSSLSASVGDRVTITCRASQDIRSNLNWYQQKPGGAVKLLIYYTSRLHSGVPSRFSGSGSGTDYTLTISSLQPEDFATYFCQQSEKLPRTFGGGTKVEIRRTVAAPSVFIFPPSDEQLKSGTASVVCLLNNFYPREAKVQWKVDNALQSGNSQESVTEQDSKDSTYSLSSTLTLSKADYEKHKVYACEVTHQGLSSPVTKSFNRGEC
notes: Anti-GITR/CD137: Ly1630 heavy chain fused to TM685 scFv (VL-VH); Ly1630 light chain
- EC50 (read off the curve) [1]: ~200 ng/mL

B2: TM677 (antibody, human IgG1, kappa, V domains shown)
VH: QVQLQESGPGLVKPSETLSLTCTVSGFSLTSYNVHWIRQPPGKGLEWIGVIWSGVRTDYNSVLKSRVTISVDTSKNQFSLKLSSVTAADTAVYYCARGTYDANYHDVMDAWGQGTMVTVSS
VL: DTVLTQSPATLSLSPGERATLSCRASKSVRTGMHWYQQKPGQAPRLLVYGASNLESGIPARFSGSGSGTDFTLTISSLEPEDFATYFCHQSWNHFTFGQGTKLEIKR
notes: Humanized anti-GITR antibody with VL back mutations; also called humanized LYV392 antibody (VH-1/IgG1 mut, VL-2/kappa)
- EC50 (read off the curve) [2]: ~700 ng/mL

B3: TM685 (antibody, human IgG1, kappa, V domains shown)
VH: QVQLQESGPGLVKPSETLSLTCTVSGFSLTSYNVHWIRQPPGKGLEWIGVIWSGVRTDYNSVLKPRVTISVDTSKNQFSLKLSSVTAADTAVYYCARGTYDDNYHDVMDAWGQGTLVTVSS
VL: EIVLTQSPATLSLSPGERATLSCRASKSVRTGMHWYQQKPGQAPRLLIYGASNLESGIPARFSGSGSGTDFTLTISSLEPEDFAVYYCQQSWNHFTFGQGTKLEIKR
notes: Humanized anti-GITR antibody; also called humanized LYV396 antibody (LYV396_VH-1/IgG1mut, LYV396_VL-1/kappa)
- EC50 (read off the curve) [2]: ~700 ng/mL

B4: Ly752 (bispecific antibody, human IgG1, kappa)
heavy: QVQLQESGPGLVKPSETLSLTCTVSGFSLTSYNVHWIRQPPGKGLEWIGVIWSGVRTDYNSVLKSRVTISVDTSKNQFSLKLSSVTAADTAVYYCARGTYDANYHDVMDAWGQGTMVTVSSASTKGPSVFPLAPSSKSTSGGTAALGCLVKDYFPEPVTVSWNSGALTSGVHTFPAVLQSSGLYSLSSVVTVPSSSLGTQTYICNVNHKPSNTKVDKKVEPKSCDKTHTCPPCPAPELLGPSVFLFPPKPKDTLMISRTPEVTCVVVDVSHEDPEVKFNWYVDGVEVHNAKTKPREEQYNSTYRVVSVLTVLHQDWLNGKEYKCKVSNKALPAPIEKTISKAKGQPREPQVYTLPPSREEMTKNQVSLTCLVKGFYPSDIAVEWESNGQPENNYKTTPPVLDSDGSFFLYSKLTVDKSRWQQGNVFSCSVMHEALHNHYTQKSLSLSPGK
light: DTVLTQSPATLSLSPGERATLSCRASKSVRTGMHWYQQKPGQAPRLLVYGASNLESGIPARFSGSGSGTDFTLTISSLEPEDFATYFCHQSWNHFTFGQGTKLEIKRTVAAPSVFIFPPSDEQLKSGTASVVCLLNNFYPREAKVQWKVDNALQSGNSQESVTEQDSKDSTYSLSSTLTLSKADYEKHKVYACEVTHQGLSSPVTKSFNRGECGGGGSGGGGSGGGGSGGGGSDIQMTQSPSSLSASVGDRVTITCRASQDIRSNLNWYQQKPGGAVKLLIYYTSRLHSGVPSRFSGSGSGTDYTLTISSLQPEDFATYFCQQSEKLPRTFGGGTKVEIRGGGGSGGGGSGGGGSGGGGSQVQLVQSGAEVKKPGASVKVSCKASGYTFAGFEMHWVRQAPGQGLEWMGAIDPKTGGTDYNQKFKDRVTMTRDTSISTAYMELSRLRSDDTAVYYCARDLGYFDVWGQGTLVTVSS
notes: Anti-GITR/CD137: TM677-derived heavy chain; TM677 light chain fused to Ly1630 scFv (VL-VH)
- EC50 (read off the curve) [1]: ~400 ng/mL

B5: Ly753 (bispecific antibody, human IgG1, kappa)
heavy: QVQLQESGPGLVKPSETLSLTCTVSGFSLTSYNVHWIRQPPGKGLEWIGVIWSGVRTDYNSVLKSRVTISVDTSKNQFSLKLSSVTAADTAVYYCARGTYDANYHDVMDAWGQGTMVTVSSASTKGPSVFPLAPSSKSTSGGTAALGCLVKDYFPEPVTVSWNSGALTSGVHTFPAVLQSSGLYSLSSVVTVPSSSLGTQTYICNVNHKPSNTKVDKKVEPKSCDKTHTCPPCPAPELLGPSVFLFPPKPKDTLMISRTPEVTCVVVDVSHEDPEVKFNWYVDGVEVHNAKTKPREEQYNSTYRVVSVLTVLHQDWLNGKEYKCKVSNKALPAPIEKTISKAKGQPREPQVYTLPPSREEMTKNQVSLTCLVKGFYPSDIAVEWESNGQPENNYKTTPPVLDSDGSFFLYSKLTVDKSRWQQGNVFSCSVMHEALHNHYTQKSLSLSPGK
light: DTVLTQSPATLSLSPGERATLSCRASKSVRTGMHWYQQKPGQAPRLLVYGASNLESGIPARFSGSGSGTDFTLTISSLEPEDFATYFCHQSWNHFTFGQGTKLEIKRTVAAPSVFIFPPSDEQLKSGTASVVCLLNNFYPREAKVQWKVDNALQSGNSQESVTEQDSKDSTYSLSSTLTLSKADYEKHKVYACEVTHQGLSSPVTKSFNRGECGGGGSGGGGSGGGGSGGGGSQVQLVQSGAEVKKPGASVKVSCKASGYTFAGFEMHWVRQAPGQGLEWMGAIDPKTGGTDYNQKFKDRVTMTRDTSISTAYMELSRLRSDDTAVYYCARDLGYFDVWGQGTLVTVSSGGGGSGGGGSGGGGSGGGGSDIQMTQSPSSLSASVGDRVTITCRASQDIRSNLNWYQQKPGGAVKLLIYYTSRLHSGVPSRFSGSGSGTDYTLTISSLQPEDFATYFCQQSEKLPRTFGGGTKVEIR
notes: Anti-GITR/CD137: TM677-derived heavy chain; TM677 light chain fused to Ly1630 scFv (VH-VL)
- EC50 (read off the curve) [1]: ~700 ng/mL

B6: Ly748 (bispecific antibody, human IgG1, kappa)
heavy: QVQLVQSGAEVKKPGASVKVSCKASGYTFAGFEMHWVRQAPGQGLEWMGAIDPKTGGTDYNQKFKDRVTMTRDTSISTAYMELSRLRSDDTAVYYCARDLGYFDVWGQGTLVTVSSASTKGPSVFPLAPSSKSTSGGTAALGCLVKDYFPEPVTVSWNSGALTSGVHTFPAVLQSSGLYSLSSVVTVPSSSLGTQTYICNVNHKPSNTKVDKKVEPKSCDKTHTCPPCPAPELLGPSVFLFPPKPKDTLMISRTPEVTCVVVDVSHEDPEVKFNWYVDGVEVHNAKTKPREEQYNSTYRVVSVLTVLHQDWLNGKEYKCKVSNKALPAPIEKTISKAKGQPREPQVYTLPPSREEMTKNQVSLTCLVKGFYPSDIAVEWESNGQPENNYKTTPPVLDSDGSFFLYSKLTVDKSRWQQGNVFSCSVMHEALHNHYTQKSLSLSPGK
light: DIQMTQSPSSLSASVGDRVTITCRASQDIRSNLNWYQQKPGGAVKLLIYYTSRLHSGVPSRFSGSGSGTDYTLTISSLQPEDFATYFCQQSEKLPRTFGGGTKVEIRRTVAAPSVFIFPPSDEQLKSGTASVVCLLNNFYPREAKVQWKVDNALQSGNSQESVTEQDSKDSTYSLSSTLTLSKADYEKHKVYACEVTHQGLSSPVTKSFNRGECGGGGSGGGGSGGGGSGGGGSDTVLTQSPATLSLSPGERATLSCRASKSVRTGMHWYQQKPGQAPRLLVYGASNLESGIPARFSGSGSGTDFTLTISSLEPEDFATYFCHQSWNHFTFGQGTKLEIKGGGGSGGGGSGGGGSGGGGSQVQLQESGPGLVKPSETLSLTCTVSGFSLTSYNVHWIRQPPGKGLEWIGVIWSGVRTDYNSVLKSRVTISVDTSKNQFSLKLSSVTAADTAVYYCARGTYDANYHDVMDAWGQGTMVTVSS
notes: Anti-GITR/CD137: Ly1630 heavy chain; Ly1630 light chain fused to TM677 scFv (VL-VH)
- binding result [2]: binds

B7: Ly745 (bispecific antibody, human IgG1, kappa)
heavy: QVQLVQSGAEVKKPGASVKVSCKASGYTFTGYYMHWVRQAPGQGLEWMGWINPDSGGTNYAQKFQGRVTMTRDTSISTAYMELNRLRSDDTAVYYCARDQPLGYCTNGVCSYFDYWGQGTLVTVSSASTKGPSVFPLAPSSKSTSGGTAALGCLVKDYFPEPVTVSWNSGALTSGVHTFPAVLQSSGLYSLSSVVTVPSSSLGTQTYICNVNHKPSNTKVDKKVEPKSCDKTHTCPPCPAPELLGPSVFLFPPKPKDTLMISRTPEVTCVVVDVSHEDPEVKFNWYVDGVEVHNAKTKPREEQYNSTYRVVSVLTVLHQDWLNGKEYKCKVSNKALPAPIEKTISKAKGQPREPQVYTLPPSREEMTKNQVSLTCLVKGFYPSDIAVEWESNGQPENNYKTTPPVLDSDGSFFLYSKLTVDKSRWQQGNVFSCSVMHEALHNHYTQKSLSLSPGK
light: DIQMTQSPSSVSASVGDRVTITCRASQGIYSWLAWYQQKPGKAPNLLIYTASTLQSGVPSRFSGSGSGTDFTLTISSLQPEDFATYYCQQANIFPLTFGGGTKVEIKRTVAAPSVFIFPPSDEQLKSGTASVVCLLNNFYPREAKVQWKVDNALQSGNSQESVTEQDSKDSTYSLSSTLTLSKADYEKHKVYACEVTHQGLSSPVTKSFNRGECGGGGSGGGGSGGGGSGGGGSQVQLVQSGAEVKKPGASVKVSCKASGYTFAGFEMHWVRQAPGQGLEWMGAIDPKTGGTDYNQKFKDRVTMTRDTSISTAYMELSRLRSDDTAVYYCARDLGYFDVWGQGTLVTVSSGGGGSGGGGSGGGGSGGGGSDIQMTQSPSSLSASVGDRVTITCRASQDIRSNLNWYQQKPGGAVKLLIYYTSRLHSGVPSRFSGSGSGTDYTLTISSLQPEDFATYFCQQSEKLPRTFGGGTKVEIR
notes: Anti-CD40/CD137: Ly253-derived heavy chain; Ly253 light chain fused to Ly1630 scFv (VH-VL)
- binding result [3]: binds
- EC50 (read off the curve) [4]: ~0.2 µg/mL
